{
  "source": "patent US20120134979A1",
  "about": "“METHODS AND COMPOSITIONS FOR THE TREATMENT OF SICKLE CELL DISEASE” (priority 2010, published 2012)",
  "molecules": {"B1": {"name": "PEG-ADA: polyethylene glycol-modified adenosine deaminase, a drug used to lower adenosine concentrations in ADA-deficient humans (protein, UniProt P56658 2-363, looked up)", "Adenosine deaminase": "AQTPAFNKPKVELHVHLDGAIKPETILYYGRKRGIALPADTPEELQNIIGMDKPLSLPEFLAKFDYYMPAIAGCREAVKRIAYEFVEMKAKDGVVYVEVRYSPHLLANSKVEPIPWNQAEGDLTPDEVVSLVNQGLQEGERDFGVKVRSILCCMRHQPSWSSEVVELCKKYREQTVVAIDLAGDETIEGSSLFPGHVKAYAEAVKSGVHRTVHAGEVGSANVVKEAVDTLKTERLGHGYHTLEDATLYNRLRQENMHFEVCPWSSYLTGAWKPDTEHPVVRFKNDQVNYSLNTDDPLIFKSTLDTDYQMTKNEMGFTEEEFKRLNINAAKSSFLPEDEKKELLDLLYKAYGMPSPASAEQCL", "modifications": "PEGylated"}},
  "key": {"[1]": {"tested_on": "SCD Tg mice", "assay": "Urine measurements (proteinuria, osmolality) in SCD Tg mice after chronic PEG-ADA", "assay_type": "in vivo, mouse", "experimental": "(§1) Chronic PEG-ADA therapy. SCD transgenic mice, at eight weeks of age, were divided to two groups. One group was injected with 2.5 U PEG-ADA weekly for 8 weeks. This dosing protocol was designated SCD with PEG-ADA treatment regimen (SCD+PEG-ADA). Another group was injected with normal saline for 8 weeks; it was designated as SCD without PEG-ADA treatment regimen (SCD). Wild-type mice (C57Bl/6) used as control were injected with saline or PEG-ADA as with the SCD groups.\nMouse urine collection and measurements. Urine was collected using a metabolic cage (Bioseb, France) for proteinuria and creatinine analysis using a commercially available kit (Exocell, Philadelphia) as described Zhou, et al. Angiotensin receptor agonistic autoantibodies induce pre-eclampsia in pregnant mice. Nat. Med. 2008; 14(8):855-862). For urine osmolality analysis, mice were deprived of water for 24 hours, then urine was collected on Parafilm, transferred to 1.5 ml tube, the urine was diluted 10 times with distilled water and measured with vapor pressure osmometer (Wescor, Logan, Utah)."}, "[2]": {"tested_on": "SCD Tg mice", "assay": "2,3-DPG in RBCs and saturated Hb in SCD Tg mice after chronic treatment", "assay_type": "in vivo, mouse", "experimental": "as §1\nChronic treatment with A2BR antagonist, PSB1115. SCD transgenic mice or wild type mice (eight weeks of age) were divided to two groups, one groups was injected with 200 μg of PSB1115 (an A2B receptor antagonist: obtained from Tocris Bioscience, St. Louis, Mo.) in PBS, daily for 8 weeks. One of groups was injected with saline.\n2,3-DPG analysis. 2,3-DPG concentration in RBCs was detected by a commercially available kit (Roche, Nutley, N.J., and as described in Ericson A, de Verdier C H. A modified method for the determination of 2,3-diphosphoglycerate in erythrocytes. Scandinavian journal of clinical and laboratory investigation. 1972; 29(1):84-90).\nMeasurement of percentage of saturated Hb in mice. Percentage of saturated Hb (SpO2) in mice was measured by Oxysat (Kent Scientific Corp, CT). Mice were held in mouse holders (Kent Scientific Corp, CT) and Oxysat sensor was placed on a site approximately 1 cm from the base of the tail. When mouse was calm, the SpO2 was continuously recorded for about 2 minutes. The data were collected and SpO2 was calculated by average of SpO2 in two-minute measurement."}, "[3]": {"tested_on": "SCD Tg mice", "assay": "Lung inflammation (neutrophils, cytokines) after hypoxia/reoxygenation in SCD Tg mice", "assay_type": "in vivo, mouse", "settings": "hypoxia-reoxygenation", "text": "Hypoxia/reoxygenation of SCD Tg mice. SCD Tg mice were subjected to two-hour hypoxic condition with 8% oxygen. After hypoxia, mice were returned to normoxic conditions for four hours Wallace, et al. NKT cells mediate pulmonary inflammation and dysfunction in murine sickle cell disease through production of IFN-gamma and CXCR3 chemokines. Blood. 2009; 114(3):667-676). At the end of the experiments, mice were sacrificed and blood collected for adenosine measurement, sickling and hemolytic analysis.\nImmunohistochemistry to assess neutrophil infiltration in the lung. To quantify neutrophils, a specific neutrophil antibody, was used as described (Zhou, et al., Enhanced airway inflammation and remodeling in adenosine deaminase-deficient mice lacking the A2B adenosine receptor. J. Immunol. 2009; 182(12):8037-8046). Rehydrated slides were quenched with 3% hydrogen peroxide, Ag retrieval performed (Dako), and endogenous avidin and biotin blocked with a Biotin Blocking System (Dako). […] Quantification of distal airway neutrophils-positive cells was performed on 20 fields/mouse lung section at ×20 using software analysis (Image Pro Plus 4.0; Media Cybernetics, Bethesda, Md., USA).\nELISA for INF-γ, IL-6, IL-1β and GM-CSF measurement in the mouse lung homongenates. INF-γ, IL-6, IL-1β and GM-CSF levels in lung homogenates were determined using ELISA kits (QUANGI)."}, "[4]": {"tested_on": "RBCs from SCD patients", "assay": "Hypoxia-induced sickling of RBCs from SCD patients", "assay_type": "cell-based, human", "settings": "RBCs from individuals with SCD, hypoxic conditions", "experimental": "Isolation of total erythrocytes and treatment of human and mouse erythrocytes in vitro. Blood collected with heparin as an anti-coagulant was centrifuged at 240×g for 10 min at room temperature, followed by aspiration of plasma and white interface. Packed red blood cells (RBCs) were washed 3 times with culture media (F-10 Ham's with 1% penicillin/streptomycin, 10% fetal bovine serum (FBS), and re-suspended to 4% hematocrit (HCT). One ml of RBCs was added to each well of a 12-well plate. Normal RBCs purified from humans were treated with different concentrations of 5′-(N-ethyl-carboxamido) adenosine (NECA, an adenosine receptor agonist, Sigma-Aldrich, St. Louis, Mo.) ranging from 1-50 μM for different time points (from 1 to 18 hr) under normoxic conditions. Normal RBCs were treated with 10 μM NECA in the presence or absence of adenosine receptor antagonists, including theophylline, PSB36, SCH442416, MRS1754 and MRS3777 (Tocris Bioscience, St. Louis, Mo.) at 10 μM. In addition, normal RBCs were treated directly with the A2BR agonist (BAY 60-6583, Bayer HealthCare AG, Wuppertal, Germany) or the A2AR agonist (CGS21680) (Tocris). Similarly, the mouse RBCs were treated with or without NECA at 10 μM in the presence or absence of theophylline (10 μM). In addition, RBCs purified from 4 adenosine receptor deficient mice were treated with 10 μM NECA. After 18 hours, cells were collected and 2,3-DPG levels were measured as described below. RBCs were purified from SCD patients and treated with or without 10 μM NECA, 5 units/ml polyethylene glycol-adenosine deaminase (PEG-ADA) or 3 mmol/L glycolic acid (Sigma-Aldrich), 10 μM MRS1754 (A2BR antagonist) under ambient oxygen (normoxia) or different levels of hypoxic conditions (for 3 hours with shaking at 37° C. At the end of experiments, 2,3-DPG levels were measured and the percentage of sickled cells determined as described below.\nMorphological study of erythrocytes and quantification of reticulocytes by flow cytometry. Blood smears were stained using the WG16-500 ml kit (Sigma-Aldrich) for sickled cells and observed using 100× oil immersion objective of Olympus BX60 microscope. […] The percentages of sickled cells among the counted cells were calculated. Reticulocyte was labeled by Retic-COUNT Reagent (Becton Dickinson) and quantified by flow cytometry (Perumbeti, et al., A novel human gamma-globin gene vector for genetic correction of sickle cell anemia in a humanized sickle mouse model: critical determinants for successful correction. Blood. 2009; 114(6):1174-1185)."}},
  "data": [
    {"molecule": "B1", "values": [
      {"measurement": "proteinuria", "setting": "[1]", "value": "decreased"},
      {"measurement": "urine osmolality", "setting": "[1]", "value": "increased"},
      {"measurement": "percentage of saturated Hb", "setting": "[2]; chronic PEG-ADA treatment", "value": "increased"},
      {"measurement": "2,3-DPG levels in the RBCs", "setting": "[2]; steady state, 8 weeks treatment", "value": "reduction"},
      {"measurement": "neutrophil infiltration in the lungs", "setting": "[3]; image quantification", "value": "significantly lowered"},
      {"measurement": "proinflammatory cytokines in the lungs (INF-γ, IL-6, IL-1β and GM-CSF)", "setting": "[3]; lung homogenates", "value": "significantly decreased"},
      {"measurement": "percentage of sickled cells", "setting": "[4]", "value": "significantly reduced"}
    ]}
  ]
}
